Article PMC8230527, “Structural and Biochemical Characterization of a Dye-Decolorizing Peroxidase from Dictyostelium discoideum” (International Journal of Molecular Sciences, 2021)

How the values were obtained:
Assay in all cases: purified protein
Assay type in all cases: biochemical, Dictyostelium discoideum
purified protein [1] = substrate: CCn1c(=NN=c2sc3cc(S(=O)(=O)O)ccc3n2CC)sc2cc(S(=O)(=O)O)ccc21; details: 1 mM H2O2, 50 mM sodium acetate pH 4.0, 150 mM NaCl, 25 °C
purified protein [2] = substrate: Nc1c(S(=O)(=O)O)cc(Nc2ccc(S(=O)(=O)O)c(Nc3nc(Cl)nc(Cl)n3)c2)c2c1C(=O)c1ccccc1C2=O; details: 1 mM H2O2, 50 mM sodium citrate pH 3.0, 150 mM NaCl, 25 °C
purified protein [3] = substrate: COc1ccc(CO)cc1OC; details: 1 mM H2O2, 50 mM sodium acetate pH 4.0, 150 mM NaCl, 25 °C

B1: Dictyostelium DyPA (Dictyostelium discoideum) (protein)
chain: MAQSTVLPMHCLYGIFLEGNLKIQKNDQEGLKKFKDNIKKFTLELDEIDKISPQSRIGGAICFSSDIWDTVTKKISKPKELKSVNTLSSYMPGTSQRDILIHIISDRMDTCFKLAQDTMRNFGEDQLDIKQEIHGFRRVEERDLTDFIDGTENPDGDELRTQYGLVAAGQPNEFGSYVFTQRYVHNLKKWYPEPLSVQQDTVGRTKKDSIEIPRDKRPITSHVSRTDLSENGKDLKIVRQSLPYGQITGEKGLMFIAYACSLHNIEKQLQSMFGQLDGKHDLLLKYTTPVTGSFYFAPSKKELLEL
notes: recombinant from E. coli Rosetta(DE3)pLysS, heme-reconstituted with hemin; homodimer
Km (purified protein [1]): 4.1 ± 0.4 mM
kcat (purified protein [1]): 89.9 ± 4.3 s⁻¹
kcat/Km (purified protein [1]): 21900 M⁻¹ s⁻¹
Km (purified protein [2]): 0.04 ± 0.01 mM
kcat (purified protein [2]): 5.2 ± 0.38 s⁻¹
kcat/Km (purified protein [2]): 130000 M⁻¹ s⁻¹
Km (purified protein [3]): 0.166 ± 0.058 mM
kcat (purified protein [3]): 0.000338 ± 3.5e-05 s⁻¹
kcat/Km (purified protein [3]): 2.03 M⁻¹ s⁻¹
